Data from patent publication US20040214757.

Key:
Experiment in all cases: EMSA
[1] = molecular target: T1, Oct-2 truncated at PstI (cDNA 655-1134) (Homo sapiens, UniProt P09086 SEQ:199-358)
T1 sequence: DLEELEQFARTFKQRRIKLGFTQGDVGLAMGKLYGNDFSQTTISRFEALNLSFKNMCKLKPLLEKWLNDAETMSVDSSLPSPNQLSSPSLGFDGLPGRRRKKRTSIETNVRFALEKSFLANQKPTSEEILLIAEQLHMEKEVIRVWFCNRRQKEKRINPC
Procedure: (§1) The polypeptides translated in vitro from these RNAs were tested for specific DNA binding by addition of the total translation mix to the DNA-protein gel assay.

[2] = molecular target: Oct-2 (pBS-ATG-oct-2, cDNA 655-1710) (Homo sapiens, UniProt P09086 SEQ:199-466)
Procedure: as §1

[3] = molecular target: Oct-2 truncated at StuI (cDNA 655-1443) (Homo sapiens, UniProt P09086 SEQ:199-461)
Procedure: as §1

Measured: binding result

B1: OCTA octanucleotide probe (dsDNA)
DNA 1: ATGCAAAT
DNA 2: ATTTGCAT
binds: all assays above
